Results taken from patent publication US20230250193A1 (PROVIVA THERAPEUTICS HONG KONG, published 2023).

Molecular target: T1, human FAPα (fibroblast activation protein-α) expressed on cells (human, UniProt Q12884 1-760)
T1 construct: also called cells expressing FAP
T1 sequence: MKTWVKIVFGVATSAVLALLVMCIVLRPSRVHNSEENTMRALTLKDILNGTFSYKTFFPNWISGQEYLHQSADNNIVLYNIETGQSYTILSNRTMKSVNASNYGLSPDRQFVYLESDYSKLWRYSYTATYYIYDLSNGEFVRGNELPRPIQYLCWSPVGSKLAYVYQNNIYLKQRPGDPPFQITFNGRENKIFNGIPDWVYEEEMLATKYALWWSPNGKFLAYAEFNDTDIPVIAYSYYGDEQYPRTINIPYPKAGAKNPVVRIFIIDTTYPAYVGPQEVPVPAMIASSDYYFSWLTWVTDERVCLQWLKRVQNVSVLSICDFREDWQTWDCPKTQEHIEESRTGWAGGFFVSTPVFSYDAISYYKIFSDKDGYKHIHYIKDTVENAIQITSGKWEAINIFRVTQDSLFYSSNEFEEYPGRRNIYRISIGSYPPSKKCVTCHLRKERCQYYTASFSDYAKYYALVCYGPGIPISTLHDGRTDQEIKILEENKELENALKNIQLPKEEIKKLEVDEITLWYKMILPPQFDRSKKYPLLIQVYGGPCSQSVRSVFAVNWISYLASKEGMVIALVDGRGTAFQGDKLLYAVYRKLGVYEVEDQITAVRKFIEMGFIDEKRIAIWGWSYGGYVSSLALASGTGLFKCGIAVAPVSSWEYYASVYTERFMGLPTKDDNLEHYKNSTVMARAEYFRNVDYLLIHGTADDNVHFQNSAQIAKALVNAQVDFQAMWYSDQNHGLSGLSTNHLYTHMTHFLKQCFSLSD
Test: flow cytometry on FAPα-expressing cells, PE-labeled anti-human IgG detection
Description: FACS analysis. FACS analysis was performed for purified antibodies. Binding of Expi293 expression supernatant or purified antibodies to FAPα and/or B7H3 expressing cells was determined by flow cytometry. lx […] were incubated for 1 hour at 4° C. with purified antibodies. After washing twice with cold FACS buffer (PBS containing 1% BSA and 0.1% sodium azide), cell surface bound antibody was detected by incubating the cells with phycoerythrin (PE)-labeled anti-human IgG antibody (Jackson Immuno, Cat #109-116-098) for 1 hour at 4° C. Cells were washed twice in FACS buffer and analyzed using Guava EasyCyte HT (Merck Millipore).

B1: P28832158 (antibody, human IgG1, kappa, V domains shown)
VH: QVQLVQSGAEVKKPGASVKVSCKASGYTFTMNIIHWVRQAPGQGLEWMGWIHPGSGAIKYAQKLQGRVTMTTDTSTSTAYMELRSLRSDDTAVYYCARHGGTGRGAMDYWGQGTLVTVSS
VL: EIVLTQSPGTLSLSPGERATLSCRASQSVSTSAYSYMHWYQQKPGQAPRLLIYLASNLESGIPDRFSGSGSGTDFTLTISRLEPEDFAVYYCQQSRELPYTFGQGTKLEIKR
notes: Produced in Expi293 cells; also called M-87_G1; VH6.32/VL7.00
**Q.** Does B1 bind?
**A.** binds
